Test results taken from publication doi:10.1101/2025.09.11.675682 (2025).

B1: PLC-γ1 (Phospholipase C-γ1), 1–1219 (enzyme)
chain: MAGAASPCANGCGPGAPSDAEVLHLCRSLEVGTVMTLFYSKKSQRPERKTFQVKLETRQITWSRGADKIEGAIDIREIKEIRPGKTSRDFDRYQEDPAFRPDQSHCFVILYGMEFRLKTLSLQATSEDEVNMWIKGLTWLMEDTLQAPTPLQIERWLRKQFYSVDRNREDRISAKDLKNMLSQVNYRVPNMRFLRERLTDLEQRSGDITYGQFAQLYRSLMYSAQKTMDLPFLEASTLRAGERPELCRVSLPEFQQFLLDYQGELWAVDRLQVQEFMLSFLRDPLREIEEPYFFLDEFVTFLFSKENSVWNSQLDAVCPDTMNNPLSHYWISSSHNTYLTGDQFSSESSLEAYARCLRMGCRCIELDCWDGPDGMPVIYHGHTLTTKIKFSDVLHTIKEHAFVASEYPVILSIEDHCSIAQQRNMAQYFKKVLGDTLLTKPVEISADGLPSPNQLKRKILIKHKKLAEGSAYEEVPTSMMYSENDISNSIKNGILYLEDPVNHEWYPHYFVLTSSKIYYSEETSSDQGNEDEEEPKEVSSSTELHSNEKWFHGKLGAGRDGRHIAERLLTEYCIETGAPDGSFLVRESETFVGDYTLSFWRNGKVQHCRIHSRQDAGTPKFFLTDNLVFDSLYDLITHYQQVPLRCNEFEMRLSEPVPQTNAHESKEWYHASLTRAQAEHMLMRVPRDGAFLVRKRNEPNSYAISFRAEGKIKHCRVQQEGQTVMLGNSEFDSLVDLISYYEKHPLYRKMKLRYPINEEALEKIGTAEPDYGALYEGRNPGFYVEANPMPTFKCAVKALFDYKAQREDELTFIKSAIIQNVEKQEGGWWRGDYGGKKQLWFPSNYVEEMVNPVALEPEREHLDENSPLGDLLRGVLDVPACQIAIRPEGKNNRLFVFSISMASVAHWSLDVAADSQEELQDWVKKIREVAQTADARLTEGKIMERRKKIALELSELVVYCRPVPFDEEKIGTERACYRDMSSFPETKAEKYVNKAKGKKFLQYNRLQLSRIYPKGQRLDSSNYDPLPMWICGSQLVALNFQTPDKPMQMNQALFMTGRHCGYVLQPSTMRDEAFDPFDKSSLRGLEPCAISIEVLGARHLPKNGRGIVCPFVEIEVAGAEYDSTKQKTEFVVDNGLNPVWPAKPFHFQISNPEFAFLRFVVYEEDMFSDQNFLAQATFPVKGLKTGYRAVPLKNNYSEDLELASLLIKIDIFPAKENGD

Experiments:
Assay in all cases: ITC
[1] = target: SLP-76 PRR peptide (aa 185–200), high affinity mutant (UniProt Q13094 185-200)
LAT 125-178 = target: T1, LAT 125-178 (Homo sapiens, UniProt O43561)
T1 chain: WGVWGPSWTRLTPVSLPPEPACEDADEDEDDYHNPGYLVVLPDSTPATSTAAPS

[2] = target: B1
SLP-76 159-533 = target: T2, SLP-76 159-533 (Homo sapiens, UniProt Q13094)
T2 chain: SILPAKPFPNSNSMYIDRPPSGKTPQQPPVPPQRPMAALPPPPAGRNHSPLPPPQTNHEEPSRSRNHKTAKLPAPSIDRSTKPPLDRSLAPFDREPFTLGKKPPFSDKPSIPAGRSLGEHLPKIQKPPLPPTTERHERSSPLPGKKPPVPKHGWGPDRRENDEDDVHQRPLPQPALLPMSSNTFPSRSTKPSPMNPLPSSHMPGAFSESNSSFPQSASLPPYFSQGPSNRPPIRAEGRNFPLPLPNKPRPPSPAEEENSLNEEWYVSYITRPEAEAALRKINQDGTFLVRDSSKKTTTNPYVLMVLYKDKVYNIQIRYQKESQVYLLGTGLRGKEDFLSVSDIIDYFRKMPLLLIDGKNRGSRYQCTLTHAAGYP

Binder: B1
- Kd [1]: 1000 nM

B2: PLC-γ1 1-1219 (protein)
chain: MAGAASPCANGCGPGAPSDAEVLHLCRSLEVGTVMTLFYSKKSQRPERKTFQVKLETRQITWSRGADKIEGAIDIREIKEIRPGKTSRDFDRYQEDPAFRPDQSHCFVILYGMEFRLKTLSLQATSEDEVNMWIKGLTWLMEDTLQAPTPLQIERWLRKQFYSVDRNREDRISAKDLKNMLSQVNYRVPNMRFLRERLTDLEQRSGDITYGQFAQLYRSLMYSAQKTMDLPFLEASTLRAGERPELCRVSLPEFQQFLLDYQGELWAVDRLQVQEFMLSFLRDPLREIEEPYFFLDEFVTFLFSKENSVWNSQLDAVCPDTMNNPLSHYWISSSHNTYLTGDQFSSESSLEAYARCLRMGCRCIELDCWDGPDGMPVIYHGHTLTTKIKFSDVLHTIKEHAFVASEYPVILSIEDHCSIAQQRNMAQYFKKVLGDTLLTKPVEISADGLPSPNQLKRKILIKHKKLAEGSAYEEVPTSMMYSENDISNSIKNGILYLEDPVNHEWYPHYFVLTSSKIYYSEETSSDQGNEDEEEPKEVSSSTELHSNEKWFHGKLGAGRDGRHIAERLLTEYCIETGAPDGSFLVRESETFVGDYTLSFWRNGKVQHCRIHSRQDAGTPKFFLTDNLVFDSLYDLITHYQQVPLRCNEFEMRLSEPVPQTNAHESKEWYHASLTRAQAEHMLMRVPRDGAFLVRKRNEPNSYAISFRAEGKIKHCRVQQEGQTVMLGNSEFDSLVDLISYYEKHPLYRKMKLRYPINEEALEKIGTAEPDYGALYEGRNPGFYVEANPMPTFKCAVKALFDYKAQREDELTFIKSAIIQNVEKQEGGWWRGDYGGKKQLWFPSNYVEEMVNPVALEPEREHLDENSPLGDLLRGVLDVPACQIAIRPEGKNNRLFVFSISMASVAHWSLDVAADSQEELQDWVKKIREVAQTADARLTEGKIMERRKKIALELSELVVYCRPVPFDEEKIGTERACYRDMSSFPETKAEKYVNKAKGKKFLQYNRLQLSRIYPKGQRLDSSNYDPLPMWICGSQLVALNFQTPDKPMQMNQALFMTGRHCGYVLQPSTMRDEAFDPFDKSSLRGLEPCAISIEVLGARHLPKNGRGIVCPFVEIEVAGAEYDSTKQKTEFVVDNGLNPVWPAKPFHFQISNPEFAFLRFVVYEEDMFSDQNFLAQATFPVKGLKTGYRAVPLKNNYSEDLELASLLIKIDIFPAKENGD
modifications: pY132, pY171
- Kd (LAT 125-178): 84 nM

Binder: QPPVPPQRPMAALPPP [SLP-76 PRR peptide (aa 185–200), wild type]
- Kd [2]: 2360 nM

B3: Gads 1-322 (protein)
chain: MEAVAKFDFTASGEDELSFHTGDVLKILSNQEEWFKAELGSQEGYVPKNFIDIQFPKWFHEGLSRHQAENLLMGKEVGFFIIRASQSSPGDFSISVRHEDDVQHFKVMRDNKGNYFLWTEKFPSLNKLVDYYRTNSISRQKQIFLRDRTREDQGHRGNSLDRRSQGGPHLSGAVGEEIRPSMNRKLSDHPPTLPLQQHQHQPQPPQYAPAPQQLQQPPQQRYLQHHHFHQERRGGSLDINDGHCGTGLGSEMNAALMHRRHTDPVQLQAAGRVRWARALYDFEALEDDELGFHSGEVVEVLDSSNPSWWTGRLHNKLGLFPA
- Kd (SLP-76 159-533): 3.6 nM

B4: Gads 1-322 (protein)
chain: MEAVAKFDFTASGEDELSFHTGDVLKILSNQEEWFKAELGSQEGYVPKNFIDIQFPKWFHEGLSRHQAENLLMGKEVGFFIIRASQSSPGDFSISVRHEDDVQHFKVMRDNKGNYFLWTEKFPSLNKLVDYYRTNSISRQKQIFLRDRTREDQGHRGNSLDRRSQGGPHLSGAVGEEIRPSMNRKLSDHPPTLPLQQHQHQPQPPQYAPAPQQLQQPPQQRYLQHHHFHQERRGGSLDINDGHCGTGLGSEMNAALMHRRHTDPVQLQAAGRVRWARALYDFEALEDDELGFHSGEVVEVLDSSNPSWWTGRLHNKLGLFPA
modifications: pY132, pY171
- Kd (LAT 125-178): 213 nM
